Assay [1] relates to mouse macrophage cell line RAW264.7. Put plainly: G-CSF secretion in RAW264.7 cells (ELISA). The class given is cell-based. The note with it: SAA 1 μM, time course. In general terms: In an ELISA, binding on a coated surface is turned into a signal by an enzyme label.
Assay [2] deals with T1, TLR2:Fc fusion protein (Homo sapiens, UniProt O60603).
T1 construct: measured in an ELISA-like assay using a TLR2 extracellular domain:Fc fragment fusion protein; made in house; host or cells: CHO cells (pFuse-Fc vector, InvivoGen), purified from culture supernatant on protein A
Put plainly: SAA-TLR2 interaction, ELISA-like binding assay. As to conditions: 0.0625 to 8 μg/ml ligand coated, 2 μg/ml TLR2:Fc. From the text: Another example of a method for screening antagonists that disrupt the SAA/TLR2 interaction involves a binding assay that includes a TLR2 ectodomain (extracellular domain) fused to an Fc fragment of immunoglobulin (TLR2:Fc), such as the assay used in FIG. 9B. This assay is typically used as a follow-up or secondary assay to that assay described above. In other words, any compounds collected from the assay described above are subjected to the TLR2:Fc-based binding assay to confirm that the antagonistic effect is on the disruption of SAA-TLR2 binding. This method is generally carried out as follows and is also described in the Examples. A TLR2:Fc fusion protein is generated such that the N-terminal 588 amino acids of human TLR2 are fused in frame to the Fc portion of mouse IgG2a. The cDNA encoding for the resulting chimeric protein is cloned in pFuse-Fc vector (InvivoGen), and stably transfected into CHO cells. […] Absorbance at 450 nm is measured on a SpectraMax 340 plate reader (Molecular Devices).
Assays for SAA-TLR2 interaction: The TL2:Fc fusion protein was generated such that the N-terminal 588 amino acids of human TLR2 protein were fused in frame with the Fc portion of mouse IgG2a. […] Absorbance at 450 nm was measured on a SpectraMax 340 plate reader (Molecular Devices). […]

This note sets out measurements from patent US7629135B2, “Toll-like receptor agonists and antagonists and methods of use thereof” (The Board of Trustees of the University of Illinois, priority 2006, dated 2009).

T1 sequence (O60603 21-588 limits assumed): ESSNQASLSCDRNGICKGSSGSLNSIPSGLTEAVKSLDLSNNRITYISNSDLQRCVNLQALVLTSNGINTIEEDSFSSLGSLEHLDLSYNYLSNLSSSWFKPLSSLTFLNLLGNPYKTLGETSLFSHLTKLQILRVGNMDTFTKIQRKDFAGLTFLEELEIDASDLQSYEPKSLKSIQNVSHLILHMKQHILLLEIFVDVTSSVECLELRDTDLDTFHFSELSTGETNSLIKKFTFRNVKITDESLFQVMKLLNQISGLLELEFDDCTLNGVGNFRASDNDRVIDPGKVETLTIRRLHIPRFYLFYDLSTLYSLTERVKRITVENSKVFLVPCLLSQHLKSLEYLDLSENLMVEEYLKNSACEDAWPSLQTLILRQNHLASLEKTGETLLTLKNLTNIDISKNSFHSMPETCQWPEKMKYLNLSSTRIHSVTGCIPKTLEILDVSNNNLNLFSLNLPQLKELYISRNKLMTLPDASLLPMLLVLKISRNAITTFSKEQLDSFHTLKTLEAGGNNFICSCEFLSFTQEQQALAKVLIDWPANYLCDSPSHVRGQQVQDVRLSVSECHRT

B1: SAA: Recombinant human SAA purchased from PeproTech; major acute-phase protein of 104 amino acids (protein, UniProt P0DJI8 19-122, looked up)
Serum amyloid A-1 protein: RSFFSFLGEAFDGARDMWRAYSDMREANYIGSDKYFHARGNYDAAKRGPGGAWAAEVITDARENIQRFFGHGAEDSLADQAANEWGRSGKDPNHFRPAGLPEKY
As for B1, the G-CSF production entry in assay [1] is “time-dependent production of G-CSF”. Besides, the “binding to TLR2:Fc fusion protein” value in assay [2] is “dose-dependent increase in SAA binding”.
